Reference: paper PMC3386633

How the values were obtained:
[1] = target: porcine stomach mucin (porcine); assay: SPR; PSM coupled to a CM5 chip (5800 RU), HOL-18 as analyte in HBS buffer, 20 uL/min, 25 °C, BIAcore 3000, 1:1 model, BIAevaluation 3.0; bound lectin removed with 200 mM D-GlcNAc
[2] = target: HOL-18, 18 kDa chitotriose-binding lectin from Halichondria okadai (Halichondria okadai); assay: SEC; gel permeation chromatography on Superdex 75 (1.0 x 32 cm), HPLC, 0.5 mL/min, 20 ug purified lectin, native conditions, calibrated with marker proteins
[3] = target: HOL-18, 18 kDa chitotriose-binding lectin from Halichondria okadai (Halichondria okadai); assay: SDS-PAGE after timed heat treatment; purified lectin in sample buffer (0.2% SDS, with or without 2% 2-mercaptoethanol) heated at 70 °C for 5-60 min; the 36 kDa dimer was retained up to 15 min and dissociated within 20-30 min
[4] = target: HOL-18, 18 kDa chitotriose-binding lectin from Halichondria okadai (Halichondria okadai)

HOL-18, 18 kDa chitotriose-binding lectin from Halichondria okadai (natural protein)
Kd [1]: 4.4 µM | koff [1]: 0.0061 s⁻¹ | kon [1]: 1400 M⁻¹ s⁻¹ | stoichiometry N [2]: 4 | stoichiometry N [3]: 2

porcine stomach mucin (natural protein)
minimum inhibitory concentration of the hemagglutination of human type A erythrocytes by HOL-18 (16 HA units) [4]: 10 µg/mL

bovine submaxillary mucin (natural protein)
minimum inhibitory concentration of the hemagglutination of human type A erythrocytes by HOL-18 (16 HA units) [4]: 125 µg/mL

B1: fetuin (natural protein)
chain: IPLDPVAGYKEPACDDPDTEQAALAAVDYINKHLPRGYKHTLNQIDSVKVWPRRPTGEVYDIEIDTLETTCHVLDPTPLANCSVRQQTQHAVEGDCDIHVLKQDGQFSVLFTKCDSSPDSAEDVRKLCPDCPLLAPLNDSRVVHAVEVALATFNAESNGSYLQLVEISRAQFVPLPVSVSVEFAVAATDCIAKEVVDPTKCNLLAEKQYGFCKGSVIQKALGGEDVRVTCTLFQTQPVIPQPQPDGAEAEAPSAVPDAAGPTPSAAGPPVASVVVGPSVVAVPLPLHRAHYDLRHTFSGVASVESSSGEAFHVGKTPIVGQPSIPGGPVRLCPGRIRYFKI
modifications: O-linked oligosaccharides and sialyl N-acetyllactosamine (Neu5Acα2-3/6Galβ1-4GlcNAc) chains in complex-type N-linked glycans
minimum inhibitory concentration of the hemagglutination of human type A erythrocytes by HOL-18 (16 HA units) [4]: 125 µg/mL
